Read-outs that look alike come from different tables or passages of the source.
What was measured:
[1] = molecular target: biotinylated Gβ1γ2 mutant Lys57Ala (rat) (UniProt P54311); assay: phage ELISA, % of wild-type b-βγ
[2] = molecular target: biotinylated Gβ1γ2 mutant Arg314Ala (rat) (UniProt P54311); assay: phage ELISA, % of wild-type b-βγ
[3] = molecular target: biotinylated Gβ1γ2 mutant Trp332Ala (rat) (UniProt P54311); assay: phage ELISA, % of wild-type b-βγ
[4] = molecular target: biotinylated Gβ1γ2 mutant Phe292Ala (rat) (UniProt P54311); assay: phage ELISA, % of wild-type b-βγ
[5] = molecular target: biotinylated Gβ1γ2 mutant Trp99Ala (rat) (UniProt P54311); assay: phage ELISA, % of wild-type b-βγ
Sequence of biotinylated Gβ1γ2 mutant Trp99Ala (rat) (P54311 whole entry W99A, chain 1 of 2): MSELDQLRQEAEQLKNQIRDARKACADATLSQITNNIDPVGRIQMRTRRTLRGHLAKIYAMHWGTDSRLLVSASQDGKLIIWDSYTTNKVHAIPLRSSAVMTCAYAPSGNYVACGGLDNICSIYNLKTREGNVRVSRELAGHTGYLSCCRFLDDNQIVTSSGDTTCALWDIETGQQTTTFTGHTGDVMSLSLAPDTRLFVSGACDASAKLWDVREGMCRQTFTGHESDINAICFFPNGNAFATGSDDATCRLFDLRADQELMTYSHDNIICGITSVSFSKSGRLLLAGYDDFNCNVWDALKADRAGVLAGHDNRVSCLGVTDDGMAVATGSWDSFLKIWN
Sequence of biotinylated Gβ1γ2 mutant Trp99Ala (rat) (P63212 2-68, chain 2 of 2, further chain): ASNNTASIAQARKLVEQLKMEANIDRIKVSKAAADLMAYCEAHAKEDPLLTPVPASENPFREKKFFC

[6] = molecular target: biotinylated Gβ1γ2 mutant His62Ala (rat) (UniProt P54311); assay: phage ELISA, % of wild-type b-βγ
[7] = molecular target: biotinylated Gβ1γ2 mutant Met188Ala (rat) (UniProt P54311); assay: phage ELISA, % of wild-type b-βγ
Sequence of biotinylated Gβ1γ2 mutant Met188Ala (rat) (P54311 whole entry M188A, chain 1 of 2): as the sequence (P54311 whole entry W99A, chain 1 of 2) above, with A99W, M188A counted along it
Sequence of biotinylated Gβ1γ2 mutant Met188Ala (rat) (P63212 2-68, chain 2 of 2, further chain): as the sequence (P63212 2-68, chain 2 of 2, further chain) above

[8] = molecular target: biotinylated Gβ1γ2 mutant Asn230Ala (rat) (UniProt P54311); assay: phage ELISA, % of wild-type b-βγ
Sequence of biotinylated Gβ1γ2 mutant Asn230Ala (rat) (P54311 whole entry N230A, chain 1 of 2): as the sequence (P54311 whole entry W99A, chain 1 of 2) above, with A99W, N230A counted along it
Sequence of biotinylated Gβ1γ2 mutant Asn230Ala (rat) (P63212 2-68, chain 2 of 2, further chain): as the sequence (P63212 2-68, chain 2 of 2, further chain) above

[9] = molecular target: biotinylated Gβ1γ2 mutant Asp246Ser (rat) (UniProt P54311); assay: phage ELISA, % of wild-type b-βγ
Sequence of biotinylated Gβ1γ2 mutant Asp246Ser (rat) (P54311 whole entry D246S, chain 1 of 2): as the sequence (P54311 whole entry W99A, chain 1 of 2) above, with A99W, D246S counted along it
Sequence of biotinylated Gβ1γ2 mutant Asp246Ser (rat) (P63212 2-68, chain 2 of 2, further chain): as the sequence (P63212 2-68, chain 2 of 2, further chain) above

[10] = molecular target: biotinylated Gβ1γ2 mutant Leu117Ala (rat) (UniProt P54311); assay: phage ELISA, % of wild-type b-βγ
Sequence of biotinylated Gβ1γ2 mutant Leu117Ala (rat) (P54311 whole entry L117A, chain 1 of 2): as the sequence (P54311 whole entry W99A, chain 1 of 2) above, with A99W, L117A counted along it
Sequence of biotinylated Gβ1γ2 mutant Leu117Ala (rat) (P63212 2-68, chain 2 of 2, further chain): as the sequence (P63212 2-68, chain 2 of 2, further chain) above

[11] = molecular target: biotinylated Gβ1γ2 mutant His311Ala (rat) (UniProt P54311); assay: phage ELISA, % of wild-type b-βγ
[12] = molecular target: biotinylated Gβ1γ2 mutant Tyr145Ala (rat) (UniProt P54311); assay: phage ELISA, % of wild-type b-βγ
[13] = molecular target: biotinylated Gβ1γ2 mutant Met101Ala (rat) (UniProt P54311); assay: phage ELISA, % of wild-type b-βγ
Sequence of biotinylated Gβ1γ2 mutant Met101Ala (rat) (P54311 whole entry M101A, chain 1 of 2): as the sequence (P54311 whole entry W99A, chain 1 of 2) above, with A99W, M101A counted along it
Sequence of biotinylated Gβ1γ2 mutant Met101Ala (rat) (P63212 2-68, chain 2 of 2, further chain): as the sequence (P63212 2-68, chain 2 of 2, further chain) above

[14] = molecular target: biotinylated Gβ1γ2 mutant Lys57Ala (rat) (UniProt P54311); assay: flow cytometry, dissociation of Fαi1 from immobilized b-β1γ2
[15] = molecular target: biotinylated Gβ1γ2 mutant Arg314Ala (rat) (UniProt P54311); assay: as above
[16] = molecular target: biotinylated Gβ1γ2 mutant Trp332Ala (rat) (UniProt P54311); assay: as above
[17] = molecular target: biotinylated Gβ1γ2 mutant Trp99Ala (rat) (UniProt P54311); assay: as above
[18] = molecular target: biotinylated Gβ1γ2 mutant Met188Ala (rat) (UniProt P54311); assay: as above
[19] = molecular target: biotinylated Gβ1γ2 mutant Asn230Ala (rat) (UniProt P54311); assay: as above
[20] = molecular target: biotinylated Gβ1γ2 mutant Asp186Ala (rat) (UniProt P54311); assay: as above
Sequence of biotinylated Gβ1γ2 mutant Asp186Ala (rat) (P54311 whole entry D186A, chain 1 of 2): as the sequence (P54311 whole entry W99A, chain 1 of 2) above, with A99W, D186A counted along it
Sequence of biotinylated Gβ1γ2 mutant Asp186Ala (rat) (P63212 2-68, chain 2 of 2, further chain): as the sequence (P63212 2-68, chain 2 of 2, further chain) above

[21] = molecular target: biotinylated Gβ1γ2 mutant Leu117Ala (rat) (UniProt P54311); assay: as above
[22] = molecular target: biotinylated Gβ1γ2 mutant Tyr145Ala (rat) (UniProt P54311); assay: as above
[23] = molecular target: biotinylated Gβ1γ2 mutant Tyr59Ala (rat) (UniProt P54311); assay: as above
[24] = molecular target: biotinylated Gβ1γ2 mutant Met101Ala (rat) (UniProt P54311); assay: as above
[25] = molecular target: biotinylated Gβ1γ2, wild-type (BAP-rat Gβ1 with Gγ2) (rat) (UniProt P54311); assay: as above
[26] = molecular target: biotinylated Gβ1γ2 mutant Lys57Ala (rat) (UniProt P54311); assay: phage ELISA, % of wild-type b-βγ; remark: listed apart in the source
[27] = molecular target: biotinylated Gβ1γ2 mutant Arg314Ala (rat) (UniProt P54311); assay: phage ELISA, % of wild-type b-βγ; remark: listed apart in the source
[28] = molecular target: biotinylated Gβ1γ2 mutant Trp332Ala (rat) (UniProt P54311); assay: phage ELISA, % of wild-type b-βγ; remark: listed apart in the source
[29] = molecular target: biotinylated Gβ1γ2 mutant Trp99Ala (rat) (UniProt P54311); assay: phage ELISA, % of wild-type b-βγ; remark: listed apart in the source
[30] = molecular target: biotinylated Gβ1γ2 mutant Met188Ala (rat) (UniProt P54311); assay: phage ELISA, % of wild-type b-βγ; remark: listed apart in the source
[31] = molecular target: biotinylated Gβ1γ2 mutant Asn230Ala (rat) (UniProt P54311); assay: phage ELISA, % of wild-type b-βγ; remark: listed apart in the source
[32] = molecular target: biotinylated Gβ1γ2 mutant Asp186Ala (rat) (UniProt P54311); assay: phage ELISA, % of wild-type b-βγ
[33] = molecular target: biotinylated Gβ1γ2 mutant Asp246Ser (rat) (UniProt P54311); assay: phage ELISA, % of wild-type b-βγ; remark: listed apart in the source
[34] = molecular target: biotinylated Gβ1γ2 mutant Leu117Ala (rat) (UniProt P54311); assay: phage ELISA, % of wild-type b-βγ; remark: listed apart in the source
[35] = molecular target: biotinylated Gβ1γ2 mutant His311Ala (rat) (UniProt P54311); assay: phage ELISA, % of wild-type b-βγ; remark: listed apart in the source
[36] = molecular target: biotinylated Gβ1γ2 mutant Tyr145Ala (rat) (UniProt P54311); assay: phage ELISA, % of wild-type b-βγ; remark: listed apart in the source
[37] = molecular target: biotinylated Gβ1γ2 mutant Tyr59Ala (rat) (UniProt P54311); assay: phage ELISA, % of wild-type b-βγ
[38] = molecular target: biotinylated Gβ1γ2 mutant Met101Ala (rat) (UniProt P54311); assay: phage ELISA, % of wild-type b-βγ; remark: listed apart in the source
[39] = molecular target: T1, biotinylated Gβ1γ2, wild-type (BAP-rat Gβ1 with Gγ2) (rat, UniProt P54311 1-340; P63212 2-68, biotin on the lysine acceptor residue of the BAP); assay: phage ELISA on immobilized b-βγ
T1 construct: immobilized on streptavidin in the assays; also called b-βγ; b-Gβ1γ2; not shown: 20 amino acid biotin acceptor peptide (BAP) fused to the N-terminus
T1 sequence (P54311 whole entry, chain 1 of 2, the tested form may be a part): as the sequence (P54311 whole entry W99A, chain 1 of 2) above, with A99W counted along it
T1 sequence (P63212 2-68, chain 2 of 2): as the sequence (P63212 2-68, chain 2 of 2, further chain) above
Experimental: Phage ELISA assays used to assess peptide binding to wild-type and mutant b-βγ were performed according to standard methods (Smrcka and Scott (2002) Methods Enzymol. 344:557-76). Briefly, 1 μg streptavidin was immobilized in the well of a […] overnight at 4° C. The wells were blocked with 100 μL of 2% bovine serum albumin (BSA) in Tris-buffered saline (TBS) for 1 hour at 4° C. followed by three washes of 1×TBS/0.5% TWEEN®. […] The wells were washed, followed by the addition of 1×10⁶ to 1×10¹⁰ phage particles and incubated at 4° C. for 3 hours. The wells were then washed six times with TBS/0.5% TWEEN® followed by addition of 40 μL of 1:5000 dilution of anti-M13 antibody (Pharmacia, Uppsala, Sweden) and incubated at room temperature for 1 hour. The wells were washed, followed by the addition of 40 μL of (2,2′-Azino-bis(3-ethylbenzthiazoline)-6-sulfonic acid (ABTS) and the […] reaction was monitored at 405 nm. Non-specific binding was subtracted for each reading.

Sequence of biotinylated Gβ1γ2 mutant Arg314Ala (rat) (P54311 whole entry R314A, chain 1 of 2): as the sequence (P54311 whole entry W99A, chain 1 of 2) above, with A99W, R314A counted along it
Sequence of biotinylated Gβ1γ2 mutant Arg314Ala (rat) (P63212 2-68, chain 2 of 2, further chain): as the sequence (P63212 2-68, chain 2 of 2, further chain) above
Sequence of biotinylated Gβ1γ2 mutant Lys57Ala (rat) (P54311 whole entry K57A, chain 1 of 2): as the sequence (P54311 whole entry W99A, chain 1 of 2) above, with K57A, A99W counted along it
Sequence of biotinylated Gβ1γ2 mutant Lys57Ala (rat) (P63212 2-68, chain 2 of 2, further chain): as the sequence (P63212 2-68, chain 2 of 2, further chain) above
Sequence of biotinylated Gβ1γ2 mutant Trp332Ala (rat) (P54311 whole entry W332A, chain 1 of 2): as the sequence (P54311 whole entry W99A, chain 1 of 2) above, with A99W, W332A counted along it
Sequence of biotinylated Gβ1γ2 mutant Trp332Ala (rat) (P63212 2-68, chain 2 of 2, further chain): as the sequence (P63212 2-68, chain 2 of 2, further chain) above

| Molecule | % of Wild-Type Signal [26] [%] | % of Wild-Type Signal [27] [%] | % of Wild-Type Signal [28] [%] | % of Wild-Type Signal [29] [%] | % of Wild-Type Signal [30] [%] | % of Wild-Type Signal [31] [%] | % of Wild-Type Signal [32] [%] | % of Wild-Type Signal [33] [%] | % of Wild-Type Signal [34] [%] | % of Wild-Type Signal [35] [%] | % of Wild-Type Signal [36] [%] | % of Wild-Type Signal [37] [%] | % of Wild-Type Signal [38] [%] | binding result [39] | also measured |
| --- | --- | --- | --- | --- | --- | --- | --- | --- | --- | --- | --- | --- | --- | --- | --- |
| phage displaying SIGK peptide | – | – | – | – | – | – | – | – | – | – | – | – | – | – | % of Wild-Type Signal [1]: 18.6%; % of Wild-Type Signal [2]: 50.2%; % of Wild-Type Signal [3]: 7.1%; % of Wild-Type Signal [4]: 109%; % of Wild-Type Signal [5]: 66%; % of Wild-Type Signal [6]: 111%; % of Wild-Type Signal [7]: 2.5%; % of Wild-Type Signal [8]: 22.4%; % of Wild-Type Signal [9]: 66.5%; % of Wild-Type Signal [10]: 2.1%; % of Wild-Type Signal [11]: 94.3%; % of Wild-Type Signal [12]: 0.8%; % of Wild-Type Signal [13]: 32.2% |
| Fluorescein-labeled Gαi1 | – | – | – | – | – | – | – | – | – | – | – | – | – | – | koff [14]: 0.0024 s⁻¹; koff [15]: 0.00197 s⁻¹; koff [16]: 0.00502 s⁻¹; koff [17]: 0.0048 s⁻¹; koff [18]: 0.00203 s⁻¹; koff [19]: 0.00247 s⁻¹; koff [20]: 0.00267 s⁻¹; koff [21]: 0.00602 s⁻¹; koff [22]: 0.00258 s⁻¹; koff [23]: 0.00302 s⁻¹; koff [24]: 0.0019 s⁻¹; koff [25]: 0.00205 s⁻¹ |
| WCPPKAMTQLGIKAC (Group II) [phage C14 (WCPPKAMTQLGIKAC)] | 3 | 3.9 | 1.6 | 10.1 | 9.9 | 60 | 3.6 | 6.3 | 3.8 | 6.1 | 1.9 | 3.6 | 1.1 | binds | – |
| SCEKRYGIEFCT [phage C4 (…)] | -0.2 | 1.4 | 1.7 | 67 | 128 | 11.5 | 51.3 | 35.8 | 18.4 | 36.5 | 4.4 | 7.6 | 61.2 | – | – |
| SCGHGLKVQSTIGACA (Group II) [phage 3C (SCGHGLKVQSTIGACA)] | 3.6 | 8.3 | -0.3 | -0.5 | -5.7 | 4.1 | 35 | 2 | 10 | 30.5 | 2.7 | 8.5 | -4.2 | binds | – |
| SIGKALFILGYPDYD [phage 3.14 (SIGKALFILGYPDYD)] | 18.6 | 50.2 | 7.1 | 66 | 2.5 | 22.4 | 14.4 | 66.5 | 2.1 | 93.4 | 0.8 | 24.7 | 26.8 | binds | – |
| WCPPKLEQWYDGCA (Group IV) [phage C2 (WCPPKLEQWYDGCA)] | -1.2 | 1.3 | 4.7 | -1 | -0.7 | 0 | 267 | 5.9 | 1.5 | 11.7 | 4.5 | -1.7 | 157 | binds | – |
| SCEKRYGIEFCT (Group III) [phage C4 (SCEKRYGIEFCT)] | – | – | – | – | – | – | – | – | – | – | – | – | – | binds | – |
| SCEKRLGVRSCT (Group III) [phage C5 (SCEKRLGVRSCT)] | 5.6 | 76.5 | 3.2 | 39 | 97.2 | 33.5 | 45.7 | 56.3 | 28.5 | 58.7 | 16.7 | 73.8 | 47.8 | binds | – |
| LCSKAYLLLGQTC (Group I) [phage 2F (LCSKAYLLLGQTC)] | -4.5 | 2.4 | -1.5 | 32.6 | 8.5 | 27.6 | 2.4 | 0.6 | 2.1 | 23.6 | 0.1 | -2 | 6 | binds | – |
| SCKRTKAQILLAPCT (Group I; also called Cl) [phage C1 (SCKRTKAQILLAPCT)] | 0.1 | 2.8 | -0.3 | 1.2 | 4 | 19.8 | 1.4 | 2.3 | 5.2 | 3 | 88 | 0.3 | 70.5 | binds | – |

From patent publication US20090221691A1 (UNIVERSITY OF ROCHESTER, published 2009)
